Assays:
[1] = mouse, in vivo, 2.5 nmol/kg
Experimental: The dose was 2.5 nmol/kg for 7 week old C57B/6J with an intranasal administration volume of 10 μL and an intraperitoneal injection volume of 200 μL.

[2] = Bioavailability and pharmacokinetics of peptide fused to GM1-C4:0 in rat (gastric route or intravenous injection); conditions: day one after intravenous injection
Experimental: Next, the bioavailability and pharmacokinetics of a peptide fused to GM-C4:0 was tested in vivo in rat.

[3] = mice, gastric gavage
Experimental: FIGS. 4A-4D. In vivo mouse studies. Absorption from intestine into blood for GM-fusion molecules 15 and 30 minutes after gastric gavage (FIG. 4A), and absorption from intestine into liver for GM-fusion molecules 1 hour after gastric gavage (FIG. 4B) are shown. […] Time course for absorption into blood was plotted (FIG. 4C). N=3 independent studies.

MDCK cells = assay: Transcytosis in MDCK cells (transwell assay, streptavidin pull-down, fluorescence)
Experimental: The in vitro transport (transcytosis) of the peptide-GM1 conjugates across a monolayer of MDCK cells, and in vivo transport across an intestinal or nasal barrier into the blood are assessed. The peptide alone are used as negative controls, and the GM1 analogs as positive controls. C6, and C12 fatty acid analogs of ceramide were also included in the experiments as direct comparisons to the GM1 and GM3 species.
MDCK cells were seeded in 0.33 cm^2 inserts 3 days prior in media containing HBSS and […] defatted BSA. Electrical resistance was checked on day of experiment.
• 1) peptide Control • 2) GM1-C6:0-peptide • 3) Peptide-C12 fatty acid • 4) Ceramide-C2-
• 1) Check electrical resistance by EVOM. • 2) Prepare stock solutions above. • 3) Wash cells apical and basolateral with HBSS, without FBS. […]
• 1) Washed Stretavidin Magnetic beads with TBS-T 4×, to remove azide. • 2) Resuspend heads in 800 uL TBS then aliquoted 50 uL out to each tube • 3) Add 1000 μL to streptavidin heads overnight at 4° C. with rotation O/N covered in foil. • 4) Remove media and wash 3×TBS-T. • 5) Elute by addition of 220 ul 95% Formamide. 10 mM EDTA 0.4 mg/ml biotin—2 min@65° C. • 6) Pipetted 100 uL of each sample×2 on 96 well plate • 7) Fluorescence was read out on a microplate reader for Fluorescein channel, and against a standard curve. […]

[4] = system: human microvascular endothelial cells (HMECs); assay: Confocal fluorescence microscopy of lysosomal transport of GM1-peptides in HMECs; assay type: cell-based; conditions: 2 μM, 1 hour continuous uptake, Lysotracker-Red
Experimental: FIGS. 25A-25C. Confocal fluorescence microscopy images of lysosomal transport of GM1-peptides. (FIG. 25A) A schematic of endosomal sorting in human microvascular endothelial cells (HMECs). (FIG. 25B) Images HMECs incubated either with C16:0-GM1-peptide (top panels), or peptide alone (bottom panel). Cells were treated with 2 μM fluorescently green labeled compound for 1 hour for continuous uptake on coverslips, and imaged in the presence of Lysotracker-Red (red). […] Scale bars=10 μm.

T84 intestinal cells = assay: Transcytosis across T84 intestinal cells; assay type: in vitro ADME
[5] = Nasal absorption of ceramide-C6 reporter peptide conjugate in mice; assay type: in vivo, C57BL/6J mice; conditions: 2 nmol/kg, blood 15 minutes post dose
Experimental: A reporter peptide was conjugated to a ceramide-C6 (Cer-C6) was administered to C57BL/6J mice (n=1, from Jackson Labs) at a dose of 2 nmol/kg. GM1-C6 conjugated to the same reported peptide was used as control. A total of 5 μl per nostril was administered over 5 minutes under isoflurane. Blood was collected via cardiac puncture 15 minutes post dose and the amount of the conjugate was evaluated by pulling down with magnetic streptavidin beads followed by elution and plate fluorescence measurement.

N=C(N)NCCC[C@@H](NC(=O)CNC(=O)[C@@H](Cc1ccc(O)cc1)NC(=O)CNC(=O)[C@@H](CO)NC(=O)CNC(=O)[C@@H](CCCCNC(=O)CCCC[C@@H]1SC[C@@H]2NC(=O)N[C@@H]21)NC(=O)[C@H](N)Cc1cn(CCCCCCNC(=O)c2ccc(-c3c4ccc(=N)c(S(=O)(=O)O)c-4oc4c(S(=O)(=O)O)c(N)ccc34)c(C(=O)O)c2)nn1)C(=O)NCC(=O)N[C@H](CO)C(=O)NCC(=O)N[C@H](CCCCNC(=O)CON)C(N)=O [peptide alone]
bioavailability [1]: 1.3%
level in rat serum [2]: 10.8 nmol/kg
absorption from intestine into blood and liver [3]: not absorbed
transcytosis across MDCK cell monolayer (MDCK cells; apical to basolateral, 37° C.): did not cross the epithelial barrier
intracellular localization [4]: did not enter into cells

CCCCCCCCCCCCC/C=C/[C@@H](O)[C@H](CO[C@@H]1O[C@H](CO)[C@@H](O[C@@H]2O[C@H](CO)[C@H](O[C@@H]3O[C@H](CO)[C@H](O)[C@H](O[C@@H]4O[C@H](CO)[C@H](O)[C@H](O)[C@H]4O)[C@H]3NC(C)=O)[C@H](O[C@]3(C(=O)O)C[C@H](O)[C@@H](NC(C)=O)[C@H](C=NOCC(=O)NCCCC[C@@H](NC(=O)CNC(=O)[C@@H](CO)NC(=O)CNC(=O)[C@@H](CCCNC(=N)N)NC(=O)CNC(=O)[C@@H](Cc4ccc(O)cc4)NC(=O)CNC(=O)[C@@H](CO)NC(=O)CNC(=O)[C@@H](CCCCNC(=O)CCCC[C@@H]4SC[C@@H]5NC(=O)N[C@@H]54)NC(=O)[C@H](N)Cc4cn(CCCCCCNC(=O)c5ccc(-c6c7ccc(=N)c(S(=O)(=O)O)c-7oc7c(S(=O)(=O)O)c(N)ccc67)c(C(=O)O)c5)nn4)C(N)=O)O3)[C@H]2O)[C@H](O)[C@H]1O)NC(=O)CCCCC [peptide fused to GM1-C6:0]
bioavailability [1]: 24.4%

AF488-LC9-oxime-C6-ceramide [Cer-C6]
transport with 4° C. temperature block (MDCK cells; MDCK): reduced the uptake
transcytosis across T84 intestinal cells (T84 intestinal cells): greater than for peptides fused to GM1 or GM3 species
absorption via the nose [5]: absorbed more efficiently than peptide conjugated to GM1-C6
absorption via the nose ([5]; listed as ceramide C6): absorbed via the nose
absorption via the nose ([5]; listed as ceramide-C6-reporter peptide conjugate): can be absorbed via nose in mice

glucagon-like peptide-1 (GLP-1) [GLP-1 peptide alone]
effect on glucose metabolism in glucose tolerance test (mice, gastric gavage): no detectable effect on glucose metabolism
absorption after gastric gavage (mouse, in vivo): not absorbed

From patent publication US12296016B2, “Ceramide-like lipid-based delivery vehicles and uses thereof” (Children's Medical Center Corporation, priority 2018, dated 2025)
